# According to paper PMC7982548 (The Journal of Biological Chemistry, 2005):
# Like-named read-outs stand apart in the source and are kept apart here.
# Assays:
# ITC [1] = biological target: the molecule itself; assay: ITC
# ITC [2] = biological target: the molecule itself; assay: ITC; remark: listed apart in the source
# SEC = biological target: the molecule itself; assay: SEC
# [3] = biological target: 6-amino acid model peptide substrate ([…]); assay: SPR
Binder,Kd (ITC [1]),Kd (ITC [2]),dH (ITC [2]),dimer/monomer ratio at 1 mg/ml (SEC),dimer/monomer ratio at 2 mg/ml (SEC),dimer/monomer ratio at 7 mg/ml (SEC),Kd [3]
N-terminal deleted SARS 3CL^pro (residues 8-303) (domain or fragment) FPSGKVEGCMVQVTCGTTTLNGLWLDDTVYCPRHVICTAEDMLNPNYEDLLIRKSNHSFLVQAGNVQLRVIGHSMQNCLLRLKVDTSNPKTPKYKFVRIQPGQTFSVLACYNGSPSGVYQCAMRPNHTIKGSFLNGSCGSVGFNIDYDCVSFCYMHHMELPTGVHAGTDLEGKFYGPFVDRQTAQAAGTDTTITLNVLAWLYAAVINGDRWFLNRFTTTLNDFNLVAMKYNYEPLTQDHVDILGPLSAQTGIAVLDMCAALKELLQNGMNGRTILGSTILEDEFTPFDVVRQCSGVTFQ,261 ± 15 µM,262 ± 15 µM,-6.89 ± 0.25 kcal/mol,0.65,0.66,0.8,–
full-length SARS coronavirus 3C-like proteinase (enzyme) SGFRKMAFPSGKVEGCMVQVTCGTTTLNGLWLDDTVYCPRHVICTAEDMLNPNYEDLLIRKSNHSFLVQAGNVQLRVIGHSMQNCLLRLKVDTSNPKTPKYKFVRIQPGQTFSVLACYNGSPSGVYQCAMRPNHTIKGSFLNGSCGSVGFNIDYDCVSFCYMHHMELPTGVHAGTDLEGKFYGPFVDRQTAQAAGTDTTITLNVLAWLYAAVINGDRWFLNRFTTTLNDFNLVAMKYNYEPLTQDHVDILGPLSAQTGIAVLDMCAALKELLQNGMNGRTILGSTILEDEFTPFDVVRQCSGVTFQ,–,227 ± 34 µM,-8.28 ± 0.103 kcal/mol,–,–,–,~152 µM
